Reference: PMC9246220

Target: AphB C235S-His6 (Vibrio cholerae, UniProt Q9KT56 1-299, C235S)
Experiment: EMSA; 0-2 uM protein; affinity similar to wild type; 20 nM DNA, 10 mM Tris-HCl pH 7.5, 1 mM EDTA, 50 mM KCl, 100 ug/ml BSA, 10 ug/ml poly dI-dC, 100 mM DTT when indicated; 20 min at 25 C; 5% PAGE in 0.5X TAE
Conditions: protein: recombinant; chain copies: 2; label: 5'-biotin; blunt

| Binder | binding result |
| --- | --- |
| hmpA promoter probe (dsDNA) DNA 1: CAATAAATTAGGTTTTGGCATGCAATCTGCTCATTAAGAAGGCTTGTGTAGAGTGGCTCA DNA 2: TGAGCCACTCTACACAAGCCTTCTTAATGAGCAGATTGCATGCCAAAACCTAATTTATTG | binds |
| tcpP promoter probe (dsDNA) DNA 1: GCAATTAAGTTCTCATTATCAACTGCAGAATTAGATTGCAAATAATTATATTAAAAAAAA DNA 2: TTTTTTTTAATATAATTATTTGCAATCTAATTCTGCAGTTGATAATGAGAACTTAATTGC | binds |
